This series is described as follows: self-splicing fitness, log relative to wild type (ln ratio); higher = more splicing; Tetrahymena group I intron in knt gene, E. coli kanamycin selection, DiMSum; sequences stand for … in CUCUCU…GGAGGGAAAAGUUAUCAGGCAUGCACCUGGUAGCUAGUCUUUAAACCAAUAGAUUGCAUCGGUUUAAAAGGCAAGACCGUCAAAUUGCGGGAAAGGGGUCAACAGCCGUUCAGUACCAAGUCUCAGGGGAAACUUUGAGAUGGCCUUGCAAAGGGUAUGGUAAUAAGCUGACGGACAUGGUCCUAACCACGCAGCCAAGUCCUAAGUCAACAGAUCUUCUGUUGAUAUGGAUGCAGUUCACAGACUAAAUGUCGGUCGGGGAAGAUGUAUUCUUCUCAUAAGAUAUAGUCGGACCUCUCCUUAAUGGGAGCUAGCGGAUGAAGUGAUGCAACACUGGAGCCGCUGGGAACUAAUUUGUAUGCGAAAGUAUAUUGAUUAGUUUUGGAGUACUCGUGGUCG
In a few lines:
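DiMSum derived fitness as the error-weighted combination of fold changes across replicates, kanamycin versus no kanamycin, normalised to wild type. E. coli BL21(DE3) held the library, which randomised all eight P1ex-region intron nucleotides within the knt kanamycin-resistance gene on pET-22b(+). Six replicate transformations grew overnight at 37°C or 30°C on LB agar with or without 25 μg/mL kanamycin, also containing 100 μg/mL carbenicillin, 50 μM IPTG and 0.2% rhamnose, and pooled colonies were amplicon-sequenced on an Illumina HiSeq 2500.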

± gives the uncertainty stated by the source.

On to AUUGAGCAAUAUUACGGAUG, for which the “self-splicing fitness (ln)” value is -3.43 ± 0.28 (30 °C) and -2.69 ± 0.38 (37 °C).
On to AUUGAGCAAUAUUACGGCGA, for which the “self-splicing fitness (ln)” value is, setting by setting: (30 °C) -1.96 ± 0.16; (37 °C) -0.878 ± 0.15.
On the same counts, the results for AUUGAGCAAUAUUACGGCUG are -1.83 ± 0.14 and -1.81 ± 0.17.
In the case of AUUGAGCAAUAUUACGGGCA, the “self-splicing fitness (ln)” value is -2.81 ± 0.23 (30 °C) and -2.3 ± 0.29 (37 °C).
As for AUUGAGCAAUAUUACGGUAC, the “self-splicing fitness (ln)” value (37 °C) is -1.72 ± 0.31.
For AUUGAGCAAUAUUACGGUCA, the “self-splicing fitness (ln)” value by setting is: (30 °C) -2.13 ± 0.19; (37 °C) -0.756 ± 0.13.
Turning to AUUGAGCAAUAUUACGUAAU, the “self-splicing fitness (ln)” value (30 °C) was -1.68 ± 0.13 and the “self-splicing fitness (ln)” value (37 °C) was -0.364 ± 0.19.
On the same counts, the results for AUUGAGCAAUAUUACGUCAA are -3.05 ± 0.26 and -2.6 ± 0.28.
Regarding AUUGAGCAAUAUUACGUGCU, the “self-splicing fitness (ln)” value is -3.03 ± 0.24 (30 °C) and -3.17 ± 0.35 (37 °C).
Take AUUGAGCAAUAUUACGUGUC: the “self-splicing fitness (ln)” value is -4.77 ± 0.26 (30 °C) and -2.53 ± 0.15 (37 °C).
On the same counts, the results for AUUUAGCAAUAUUACGAACG are -0.287 ± 0.16 and -0.464 ± 0.29.
Regarding AUUUAGCAAUAUUACGACCG, the “self-splicing fitness (ln)” value was -1.54 ± 0.24 (30 °C) and -0.522 ± 0.23 (37 °C).
As for AUUUAGCAAUAUUACGAGCG, the “self-splicing fitness (ln)” value was -2.66 ± 0.23 (30 °C) and -1.05 ± 0.2 (37 °C).
In the case of AUUUAGCAAUAUUACGAUGG, the “self-splicing fitness (ln)” value (30 °C) is -2.89 ± 0.34.
AUUUAGCAAUAUUACGCAGG: the “self-splicing fitness (ln)” value (30 °C) was -3.36 ± 0.38.
For the sequence AUUUAGCAAUAUUACGCCGA, the “self-splicing fitness (ln)” value runs as follows: (30 °C) -1.94 ± 0.28; (37 °C) -1.09 ± 0.23.
The corresponding values for AUUUAGCAAUAUUACGCUAA are -2.13 ± 0.23 and -1.3 ± 0.31.
Consider AUUUAGCAAUAUUACGGAGG, for which the “self-splicing fitness (ln)” value by setting is: (30 °C) -2.53 ± 0.19; (37 °C) -2.06 ± 0.27.
For the sequence AUUUAGCAAUAUUACGGCCG, the “self-splicing fitness (ln)” value by setting is: (30 °C) -1.29 ± 0.15; (37 °C) -1.6 ± 0.15.
For AUUUAGCAAUAUUACGGUUA, the “self-splicing fitness (ln)” value by setting is: (30 °C) -0.84 ± 0.16; (37 °C) -0.183 ± 0.13.
With AUUUAGCAAUAUUACGGUUU, the “self-splicing fitness (ln)” value runs as follows: (30 °C) -1.02 ± 0.096; (37 °C) -0.0857 ± 0.12.
Take AUUUAGCAAUAUUACGUAAA: the “self-splicing fitness (ln)” value (30 °C) was -2.28 ± 0.21 and the “self-splicing fitness (ln)” value (37 °C) was -1.09 ± 0.18.
Take AUUUAGCAAUAUUACGUCAC: the “self-splicing fitness (ln)” value runs as follows: (30 °C) -3.2 ± 0.37; (37 °C) -1.42 ± 0.32.
As for AUUUAGCAAUAUUACGUCCU, the “self-splicing fitness (ln)” value is, setting by setting: (30 °C) -0.237 ± 0.16; (37 °C) 0.18 ± 0.23.
The corresponding values for AUUUAGCAAUAUUACGUGAU are -0.978 ± 0.12 and -0.863 ± 0.12.
For the sequence AUUUAGCAAUAUUACGUGUA, the “self-splicing fitness (ln)” value is -2.42 ± 0.23 (30 °C) and -1.5 ± 0.17 (37 °C).
On the same counts, the results for AUUUAGCAAUAUUACGUGUU are -1.73 ± 0.14 and 0.39 ± 0.14.
For CAAAAGCAAUAUUACGAAAG, the “self-splicing fitness (ln)” value (30 °C) was -0.791 ± 0.077 and the “self-splicing fitness (ln)” value (37 °C) is -0.705 ± 0.097.
On the same counts, the results for CAAAAGCAAUAUUACGAACU are -2.51 ± 0.19 and -1.3 ± 0.21.
On the same counts, the results for CAAAAGCAAUAUUACGAAGG are -1.87 ± 0.11 and -0.758 ± 0.13.
For CAAAAGCAAUAUUACGAAUU, the “self-splicing fitness (ln)” value reads like this: (30 °C) -3.52 ± 0.18; (37 °C) -2.27 ± 0.22.
Consider CAAAAGCAAUAUUACGACAG, for which the “self-splicing fitness (ln)” value was -0.12 ± 0.062 (30 °C) and -0.154 ± 0.083 (37 °C).
On to CAAAAGCAAUAUUACGACUA, for which the “self-splicing fitness (ln)” value was -1.52 ± 0.13 (30 °C) and -0.952 ± 0.12 (37 °C).
The corresponding values for CAAAAGCAAUAUUACGACUU are -1.83 ± 0.098 and -0.224 ± 0.098.
As for CAAAAGCAAUAUUACGAGAA, the “self-splicing fitness (ln)” value reads like this: (30 °C) -1.51 ± 0.24; (37 °C) -2.47 ± 0.25.
As for CAAAAGCAAUAUUACGAGCC, where the note is “30 °C”, the “self-splicing fitness (ln)” value was -3.49 ± 0.3.
CAAAAGCAAUAUUACGAGCG: the “self-splicing fitness (ln)” value is -0.129 ± 0.077 (30 °C) and 0.342 ± 0.097 (37 °C).
The corresponding values for CAAAAGCAAUAUUACGAUAG are -0.0755 ± 0.065 and 0.3 ± 0.083.
On the same counts, the results for CAAAAGCAAUAUUACGAUCG are 0.0933 ± 0.07 and 0.514 ± 0.09.

For the origin of these results see the supplement of paper PMC7877785.
